Test [1] deals with IRE1α in mouse embryonic fibroblasts (MEFs). Kind of test: IRE1α activation in MEFs (immunoblot). The format is cell-based. To be noted: ovalbumin, 4 h. As for the experimental part:
(§1) Figure S1. Antigen pulsing of BMDCs activates IRE1α. (A) BMDCs were treated with MG132 (5 μM) or ovalbumin (500 μg/ml) for indicated time points and analyzed by IB. (B) BMDCs were pulsed with ovalbumin (500 μg/ml) and G9668 (3 μM) for indicated time periods and analyzed by IB. (C) Molecular structure, potency, and kinase selectivity of G9668. (D) Schematic representation of G9668 interaction with 220 kinases at 1 μM. Size and color of circles represent interaction strength. Analysis was conducted by KinomeScan. (E) BMDCs were pulsed for 4 h with APC-tagged ovalbumin or soluble CD4-Fc protein (500 μg/ml) with amiloride (10 μM); uptake of protein was assayed by flow cytometry (n = 3). (F) WT or MyD88 KO Flt3L-derived BMDCs were pulsed with ovalbumin (500 μg/ml) or soluble CD4-Fc protein (500 μg/ml), or treated with LPS (10 μg/ml) for 4 h and analyzed by IB. (G) MEFs and BMDCs were pulsed with ovalbumin or treated with Tg (100 nM) for 4 h and analyzed by IB. Images in A, B, F, and G represent at least two similar experiments, and molecular weights represent kD; E bar graphs represent mean ± SD from three independent biological repeats. Analysis for E was performed using unpaired, two-tailed t test; *, P ≤ 0.05; **, P ≤ 0.01. Source data are available for this figure: SourceData FS1. […]

Test [2] relates to PERK (ATF4, CHOP) in BMDCs. Kind of test: PERK activation in BMDCs (immunoblot of ATF4 and CHOP). The format is cell-based, mouse. Conditions: MG132 5 μM or ovalbumin 500 μg/ml, in words. As for the experimental part:
as §1
A general note: A western blot detects proteins with antibodies after separation by electrophoresis.

The test system of test [3] is ATF6 in BMDCs. Kind of test: ATF6 activation in BMDCs (immunoblot, proteolytic processing). To be noted: MG132 5 μM or ovalbumin 500 μg/ml, in words. Type of test: cell-based, mouse. As for the experimental part: as §1

B1: ovalbumin: classical protein antigen ovalbumin (Sigma-Aldrich) (protein)
chain: MGSIGAASMEFCFDVFKELKVHHANENIFYCPIAIMSALAMVYLGAKDSTRTQINKVVRFDKLPGFGDSIEAQCGTSVNVHSSLRDILNQITKPNDVYSFSLASRLYAEERYPILPEYLQCVKELYRGGLEPINFQTAADQARELINSWVESQTNGIIRNVLQPSSVDSQTAMVLVNAIVFKGLWEKAFKDEDTQAMPFRVTEQESKPVQMMYQIGLFRVASMASEKMKILELPFASGTMSMLVLLPDEVSGLEQLESIINFEKLTEWTSSNVMEERKIKVYLPRMKMEEKYNLTSVLMAMGITDVFSSSANLSGISSAESLKISQAVHAAHAEINEAGREVVGSAEAGVDAASVSEEFRADHPFLFCIKHIATNAVLFFGRCVSP
With B1, the “IRE1α activation, MEFs” value in test [1] is given as “did not display detectable IRE1α activation”. Further, the PERK activation result in test [2] was “did not show a measurable response”. Besides, the ATF6 activation entry in test [3] is given as “relatively minimal activation”.

For the origin of these results see paper PMC9036094, “Antigen-derived peptides engage the ER stress sensor IRE1α to curb dendritic cell cross-presentation” (The Journal of Cell Biology, 2022).
